T1: mtSSB (human, UniProt Q04837 17-148)
T1 sequence: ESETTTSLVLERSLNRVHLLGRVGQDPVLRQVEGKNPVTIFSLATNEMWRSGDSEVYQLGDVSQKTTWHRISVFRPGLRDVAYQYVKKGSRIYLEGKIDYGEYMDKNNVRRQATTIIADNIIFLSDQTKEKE

T2: full-length human PrimPol (recombinant) (human, UniProt Q96LW4 1-560)
T2 construct: also called wild-type PrimPol
T2 sequence (looked up): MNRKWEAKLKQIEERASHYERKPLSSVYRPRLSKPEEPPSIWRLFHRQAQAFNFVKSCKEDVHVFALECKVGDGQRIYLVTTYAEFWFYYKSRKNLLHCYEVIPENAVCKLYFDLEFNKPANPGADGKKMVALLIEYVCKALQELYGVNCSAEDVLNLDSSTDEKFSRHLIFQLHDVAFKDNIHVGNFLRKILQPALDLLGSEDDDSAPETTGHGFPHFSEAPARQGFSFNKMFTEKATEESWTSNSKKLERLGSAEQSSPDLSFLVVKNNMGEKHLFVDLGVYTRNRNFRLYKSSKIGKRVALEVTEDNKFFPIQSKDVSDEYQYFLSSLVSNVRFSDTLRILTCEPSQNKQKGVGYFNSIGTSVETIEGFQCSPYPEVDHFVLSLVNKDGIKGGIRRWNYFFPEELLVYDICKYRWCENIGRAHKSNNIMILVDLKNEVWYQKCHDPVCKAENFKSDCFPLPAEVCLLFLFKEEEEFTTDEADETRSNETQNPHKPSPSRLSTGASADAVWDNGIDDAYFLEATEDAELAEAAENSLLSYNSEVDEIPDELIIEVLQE

B1: ND-50 ssDNA Template (sequence 16) (ssDNA)
DNA: CGCGCAGGGCGCACAACAGCCTTGAAGACCGAACGACCGAACAGACGACA
B2: RPA70N^1–120 (DBD-N of RPA1, N-terminal domain of RPA70) (domain or fragment, human, UniProt P27694 1-120, looked up)
chain: MVGQLSEGAIAAIMQKGDTNIKPILQVINIRPITTGNSPPRYRLLMSDGLNTLSSFMLATQLNPLVEEEQLSSNCVCQIHRFIVNTLKDGRRVVILMELEVLKSAEAVGVKIGNPVPYNE
modifications: 15N-enriched
notes: RPA70 (RPA1) residues 1-120, N-terminal protein recruitment domain

Key:
mtSSB = biological target: T1, mtSSB; test: EMSA; 10 mM Mg acetate; full shift at less than half the amount needed for RPA; super-shifted bands = multiple SSBs bound; EMSA: 50 mM K acetate, 20 mM Tris-acetate pH 7.9, 10 mM Mg acetate, 1 mM DTT, 60 nM FAM-ssDNA, 60 min at room temperature; 5% native PAGE in 0.5x TBE; conditions: protein: recombinant; chain copies: 4; label: 5'-FAM (fluorescein); single strand
[1] = biological target: RPA (replication protein A) (human, UniProt P27694;P15927;P35244 1-616;1-270;1-121); test: EMSA; 10 mM Mg acetate; SSB/oligo 0-16; more than twice as much RPA as mtSSB needed to fully shift; super-shifted bands = multiple SSBs bound; EMSA: 50 mM K acetate, 20 mM Tris-acetate pH 7.9, 10 mM Mg acetate, 1 mM DTT, 60 nM FAM-ssDNA, 60 min at room temperature; 5% native PAGE in 0.5x TBE; conditions: protein: recombinant; copies: 1;1;1; label: 5'-FAM (fluorescein); single strand
[2] = biological target: T2, full-length human PrimPol (recombinant); test: NMR titration; 15N-1H HSQC of 15N-enriched RPA domain (50 uM RPA70N) alone and with 2-fold molar excess (100 uM) of unlabelled PrimPol construct; 25°C; 20 mM HEPES, 80 mM NaCl, 2 mM DTT, 5% deuterium oxide, pH 7.1; conditions: both partners purified

Sequence of RPA (replication protein A) (P15927 whole entry, chain 2 of 2, the tested form may be a part): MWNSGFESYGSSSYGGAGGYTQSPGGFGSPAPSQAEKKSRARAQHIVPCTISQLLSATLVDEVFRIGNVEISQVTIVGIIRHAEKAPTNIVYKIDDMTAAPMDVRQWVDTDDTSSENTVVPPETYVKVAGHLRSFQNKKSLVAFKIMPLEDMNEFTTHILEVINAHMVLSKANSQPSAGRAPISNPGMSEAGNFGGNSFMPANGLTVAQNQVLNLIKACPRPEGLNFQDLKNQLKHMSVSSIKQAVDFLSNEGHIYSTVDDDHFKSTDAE
Sequence of RPA (replication protein A) (P35244 whole entry, chain 3 of 2, the tested form may be a part): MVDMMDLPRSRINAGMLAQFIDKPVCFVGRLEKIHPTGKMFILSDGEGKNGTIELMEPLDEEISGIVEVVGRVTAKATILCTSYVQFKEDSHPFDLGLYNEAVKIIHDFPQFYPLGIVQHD

Row | Binder | binding result (mtSSB) | binding result [1] | binding result [2]
1 | B1 | binds | binds | –
2 | B2 | – | – | binds
